Measurements published in patent publication US20240368250A1 (Ablynx, published 2024).
Positions count from the first letter of the chain named. Names and notes keep the numbering of the source.

What was measured:
[1] = target: T1, Human FcRn (biotinylated human FcRn) (human, UniProt P61769 21-119); assay: SPR Biacore 8K+, biotinylated hFcRn on SA chip (~500-600 RU), pH 6.0, bivalent analyte fit;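 note: analytes were Fc proteins binding to biotinylated human FcRn captured on a Series S streptavidin sensor chip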
T1 construct: Biotinylated human FcRn captured on a Series S Sensor Chip SA; also called human neonatal Fc receptor; hFcRn

[2] = target: T1, Human FcRn (biotinylated human FcRn); assay: SPR Biacore 8K+, biotinylated hFcRn on SA chip (~500-600 RU), pH 6.0, bivalent analyte fit (KD1)
[3] = target: T1, Human FcRn (biotinylated human FcRn); assay: SPR Biacore 8K+, biotinylated hFcRn on SA chip (~500-600 RU), pH 6.0, bivalent analyte fit (ka1)
[4] = target: T1, Human FcRn (biotinylated human FcRn); assay: SPR Biacore 8K+, biotinylated hFcRn on SA chip (~500-600 RU), pH 6.0, bivalent analyte fit (kd1)
[5] = target: T2, Human serum albumin (HSA; Sigma-Aldrich Cat No. A8763) (human, UniProt P02768 25-609); assay: SPR Biacore 8K+, HSA on CM5 chip, pH 6.0, 1:1 fit
[6] = target: T2, Human serum albumin (HSA; Sigma-Aldrich …); assay: SPR Biacore 8K+, HSA on CM5 chip, pH 7.4, 1:1 fit
[7] = target: T3, Mouse serum albumin (MSA; Albumin Bioscience Cat No. 2601) (mouse, UniProt P07724 25-608); assay: SPR Biacore 8K+, MSA on CM5 chip, pH 6.0, 1:1 fit
[8] = target: T3, Mouse serum albumin (MSA; Albumin …); assay: SPR Biacore 8K+, MSA on CM5 chip, pH 7.4, 1:1 fit
[9] = target: T2, Human serum albumin (HSA; Sigma-Aldrich …); assay: SPR Biacore 8K+, HSA on C1 chip, pH 7.4, 1:1 fit
[10] = target: T3, Mouse serum albumin (MSA; Albumin …); assay: SPR Biacore 8K+, MSA on C1 chip, pH 7.4, 1:1 fit (off-rate only)

B1: TPP-66176 (Fc fusion)
chain: DVQLVESGGGVVQAGGSLSISCAASGGSLSNYVLGWFRQAPGKEREFVAAINWRGDITIGPPNVEGRFTISRDNAKNTGYLQMNSLAPDDTALYYCGAGTPLNPGAYIYDWSYDYWGRGTLVTVSSDKTHTCPSCPAPEAAGGPSVFLFPPKPKDTLMISRTPEVTCVVVDVSQEDPEVQFNWYVDGVEVHNAKTKPREEQFNSTYRVVSVLTVLHQDWLNGKEYKCKVSNKGLPSSIEKTISKAKGQPREPQVYTLPPSQEEMTKNQVSLTCLVKGFYPSDIAVEWESNGQPENNYKTTPPVLDSDGSFFLYSKLTVDKSRWQEGNVFSCSVMHEALHNHYTQKSLSLSLGGGGGSGGGGSGGGGSGGGGSGGGGSGGGGSGGGGSEVQLVESGGGVVQAGGSLSISCAASGGSLSNYVLGWFRQAPGKEREFVAAINWRGDITIGPPNVEGRFTISRDNAKNTGYLQMNSLAPDDTALYYCGAGTPLNPGAYIYDWSYDYWGRGTLVTVSSA
notes: Symmetrical IgG4 FALA Fc fusion without knob-in-hole mutations, four irrelevant ISVDs; control; also called symmetrical ISVD-Fc polypeptide
KD2 [1]: 4.53 M | ka2 [1]: 3.79e-05 1/RUs | kd2 [1]: 0.000172 s⁻¹ | Kd [2]: 1260 nM | kon [3]: 62900 M⁻¹ s⁻¹ | koff [4]: 0.0794 s⁻¹

B2: TP019 (Fc fusion)
chain 1: DVQLVESGGGLVQPGGSLRLSCAASGLTFSTNPMYWYRQAPGKQRELVASISSRGITNYADSVKGRFTISRDNSKNTVYLQMNSLRPEDTAVYYCRLASLSSGTVYWGQGTLVTVSSDKTHTCPPCPAPEAAGGPSVFLFPPKPKDTLMASRTPEVTCVVVDVSQEDPEVQFNWYVDGVEVHNAKTKPREEQFNSTYRVVSVLTVLAQDWLNGKEYKCKVSNKGLPSSIEKTISKAKGQPREPQVYTLPPCQEEMTKNQVSLWCLVKGFYPSDIAVEWESNGQPENNYKTTPPVLDSDGSFFLYSKLTVDKSRWQEGNVFSCSVMHEALHNAYTQKSLSLSLGGGGGSGGGGSGGGGSGGGGSGGGGSGGGGSGGGGSEVQLVESGGGVVQPGGSLRLSCAASGFTFRSFGMSWVRQAPGKGPEWVSSISGSGSDTLYADSVKGRFTISRDNSKNTLYLQMNSLRPEDTALYYCTIGGSLSRSSQGTLVTVSS
chain 2: DKTHTCPPCPAPEAAGGPSVFLFPPKPKDTLMASRTPEVTCVVVDVSQEDPEVQFNWYVDGVEVHNAKTKPREEQFNSTYRVVSVLTVLAQDWLNGKEYKCKVSNKGLPSSIEKTISKAKGQPREPQVCTLPPSQEEMTKNQVSLSCAVKGFYPSDIAVEWESNGQPENNYKTTPPVLDSDGSFFLVSKLTVDKSRWQEGNVFSCSVMHEALHNAYTQKSLSLSLG
Kd [5]: 26 nM | koff [5]: 0.0016 s⁻¹ | kon [5]: 61000 M⁻¹ s⁻¹ | Kd [6]: 51 nM | koff [6]: 0.0019 s⁻¹ | kon [6]: 36000 M⁻¹ s⁻¹ | Kd [7]: 50 nM | koff [7]: 0.5 s⁻¹ | kon [7]: 1e+07 M⁻¹ s⁻¹ | Kd [8]: 50 nM | koff [8]: 0.5 s⁻¹ | kon [8]: 1e+07 M⁻¹ s⁻¹

B3: TP016 (Fc fusion)
chain 1: DVQLVESGGGLVQPGGSLRLSCAASGLTFSTNPMYWYRQAPGKQRELVASISSRGITNYADSVKGRFTISRDNSKNTVYLQMNSLRPEDTAVYYCRLASLSSGTVYWGQGTLVTVSSDKTHTCPPCPAPEAAGGPSVFLFPPKPKDTLMASRTPEVTCVVVDVSQEDPEVQFNWYVDGVEVHNAKTKPREEQFNSTYRVVSVLTVLAQDWLNGKEYKCKVSNKGLPSSIEKTISKAKGQPREPQVYTLPPCQEEMTKNQVSLWCLVKGFYPSDIAVEWESNGQPENNYKTTPPVLDSDGSFFLYSKLTVDKSRWQEGNVFSCSVMHEALHNAYTQKSLSLSLG
chain 2: DVQLVESGGGVVQPGGSLRLSCAASGFTFRSFGMSWVRQAPGKGPEWVSSISGSGSDTLYADSVKGRFTISRDNSKNTLYLQMNSLRPEDTALYYCTIGGSLSRSSQGTLVTVSSDKTHTCPPCPAPEAAGGPSVFLFPPKPKDTLMASRTPEVTCVVVDVSQEDPEVQFNWYVDGVEVHNAKTKPREEQFNSTYRVVSVLTVLAQDWLNGKEYKCKVSNKGLPSSIEKTISKAKGQPREPQVCTLPPSQEEMTKNQVSLSCAVKGFYPSDIAVEWESNGQPENNYKTTPPVLDSDGSFFLVSKLTVDKSRWQEGNVFSCSVMHEALHNAYTQKSLSLSLG
Kd [5]: 3.7 nM | koff [5]: 0.0004 s⁻¹ | kon [5]: 110000 M⁻¹ s⁻¹ | Kd [6]: 9.3 nM | koff [6]: 0.00057 s⁻¹ | kon [6]: 61000 M⁻¹ s⁻¹ | Kd [7]: 22 nM | koff [7]: 0.0038 s⁻¹ | kon [7]: 170000 M⁻¹ s⁻¹ | Kd [8]: 35 nM | koff [8]: 0.0042 s⁻¹ | kon [8]: 120000 M⁻¹ s⁻¹

B4: TPP-66144 (Fc fusion)
chain 1: DVQLVESGGGVVQAGGSLSISCAASGGSLSNYVLGWFRQAPGKEREFVAAINWRGDITIGPPNVEGRFTISRDNAKNTGYLQMNSLAPDDTALYYCGAGTPLNPGAYIYDWSYDYWGRGTLVTVSSDKTHTCPPCPAPEAAGGPSVFLFPPKPKDTLMISRTPEVTCVVVDVSQEDPEVQFNWYVDGVEVHNAKTKPREEQFNSTYRVVSVLTVLHQDWLNGKEYKCKVSNKGLPSSIEKTISKAKGQPREPQVYTLPPCQEEMTKNQVSLWCLVKGFYPSDIAVEWESNGQPENNYKTTPPVLDSDGSFFLYSKLTVDKSRWQEGNVFSCSVMHEALHNHYTQKSLSLSLGGGGGSGGGSEVQLVESGGGVVQPGGSLRLSCAASGFTFRSFGMSWVRQAPGKGPEWVSSISGSGSDTLYADSVKGRFTISRDNSKNTLYLQMNSLRPEDTALYYCTIGGSLSRSSQGTLVTVSSA
chain 2: DVQLVESGGGVVQAGGSLSISCAASGGSLSNYVLGWFRQAPGKEREFVAAINWRGDITIGPPNVEGRFTISRDNAKNTGYLQMNSLAPDDTALYYCGAGTPLNPGAYIYDWSYDYWGRGTLVTVSSDKTHTCPPCPAPEAAGGPSVFLFPPKPKDTLMISRTPEVTCVVVDVSQEDPEVQFNWYVDGVEVHNAKTKPREEQFNSTYRVVSVLTVLHQDWLNGKEYKCKVSNKGLPSSIEKTISKAKGQPREPQVCTLPPSQEEMTKNQVSLSCAVKGFYPSDIAVEWESNGQPENNYKTTPPVLDSDGSFFLVSKLTVDKSRWQEGNVFSCSVMHEALHNRFTQKSLSLSLG
notes: IgG4 FALA Fc knob-in-hole, C-terminal ALB23002 via 9GS linker
Kd [9]: 51.6 nM | koff [9]: 0.00124 s⁻¹ | kon [9]: 24000 M⁻¹ s⁻¹ | koff [10]: 0.0842 s⁻¹ | KD2 [1]: 2.86 M | ka2 [1]: 0.017 1/RUs | kd2 [1]: 0.0485 s⁻¹ | Kd [2]: 103 nM | kon [3]: 808000 M⁻¹ s⁻¹ | koff [4]: 0.0834 s⁻¹

B5: TPP-66143 (Fc fusion)
chain 1: B1 chain with S134P, S260C, T272W
chain 2: B4 chain 2
notes: IgG4 FALA Fc knob-in-hole (hole chain H435R, Y436F) with three irrelevant ISVDs; control; also called control ISVD-Fc polypeptide
KD2 [1]: 4.24 M | ka2 [1]: 3.22e-05 1/RUs | kd2 [1]: 0.000136 s⁻¹ | Kd [2]: 941 nM | kon [3]: 82800 M⁻¹ s⁻¹ | koff [4]: 0.0779 s⁻¹

B6: TPP-66152 (Fc fusion)
chain 1: B4 chain 2 with C255Y, S260C, S272W, A274L, V313Y, R341H, F342Y
chain 2: DVQLVESGGGVVQAGGSLSISCAASGGSLSNYVLGWFRQAPGKEREFVAAINWRGDITIGPPNVEGRFTISRDNAKNTGYLQMNSLAPDDTALYYCGAGTPLNPGAYIYDWSYDYWGRGTLVTVSSDKTHTCPPCPAPEAAGGPSVFLFPPKPKDTLMISRTPEVTCVVVDVSQEDPEVQFNWYVDGVEVHNAKTKPREEQFNSTYRVVSVLTVLHQDWLNGKEYKCKVSNKGLPSSIEKTISKAKGQPREPQVCTLPPSQEEMTKNQVSLSCAVKGFYPSDIAVEWESNGQPENNYKTTPPVLDSDGSFFLVSKLTVDKSRWQEGNVFSCSVMHEALHNRFTQKSLSLSLGGGGGSGGGGSGGGGSGGGGSGGGGSGGGGSGGGGSLKEAKEKAIEELKKAGITSDYYFDLINKAKTVEGVNALKDEILKA
notes: IgG4 FALA Fc knob-in-hole, C-terminal ABD via 35GS on chain 2
Kd [9]: 2.24 nM | koff [9]: 0.000201 s⁻¹ | kon [9]: 89500 M⁻¹ s⁻¹ | koff [10]: 0.00111 s⁻¹ | Kd [2]: 1860 nM | kon [3]: 57500 M⁻¹ s⁻¹ | koff [4]: 0.107 s⁻¹

B7: TPP-66175 (Fc fusion)
chain 1: B1 chain with S134P, M158Y, S160T, T162E, S260C, T272W
chain 2: B4 chain 2 with M158Y, S160T, T162E
notes: IgG4 FALA Fc (YTE) knob-in-hole with three irrelevant ISVDs; control; also called control ISVD-Fc(YTE) polypeptide
KD2 [1]: 3.98 M | ka2 [1]: 0.0232 1/RUs | kd2 [1]: 0.0922 s⁻¹ | Kd [2]: 179 nM | kon [3]: 93300 M⁻¹ s⁻¹ | koff [4]: 0.0167 s⁻¹
